Results published in patent publication US20190328766, “COMPOSITIONS AND METHODS FOR SUPPRESSING MSUT2” (United States Government As Represented By The Department …, published 2019).

Legend:
[1] = target: T1, GST-MSUT2 (UniProt Q6PJT7 Q6PJT7:595-719); test: AlphaScreen; 25 mM HEPES, 100 mM NaCl, 0.04% casein, 0.2% Triton X-100, pH 7.4, room temp; inhibited by ebselen; conditions: tags: GST fusion; label: 5' TEG-Biotin (IDT)
T1 sequence: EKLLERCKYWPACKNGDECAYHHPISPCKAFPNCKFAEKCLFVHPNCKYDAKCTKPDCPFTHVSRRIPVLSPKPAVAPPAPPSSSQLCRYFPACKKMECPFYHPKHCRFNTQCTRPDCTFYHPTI
Procedure: The steps and set up for performing the ALPHA assay for MSUT2 binding to polyA are as follows: [0229] 1. Dilutions are in assay buffer (1×PAMA final concentration). [0230] 2. Scale is for 96 well assay in PE […] ½ area plate (total volume/well is 50 μL). [0231] 3. Assays set up in low light conditions [0232] 4. Add 20 μL of diluted donor bead (10 ug/mL) to well bringing well volume to 20 μL [0233] 5. Add 10 μL diluted biotin RNA (15 nM)) bringing well volume to 30 μL [0234] 6. Add 10 μL diluted GST-MSUT2 Protein (125 nM)) bringing well volume to 40 μL [0235] 7. Incubate at room temp for 30 minutes in the dark [0236] 8. […] 9. Incubate at room temp for 60 minutes in the dark [0238] 10. Read Plate using standard AlphaAssay settings on Perkin Elmer EnSpire® Alpha microplate reader

[2] = target: T2, PABPN1 (Homo sapiens, UniProt Q86U42 Q86U42:1-306); test: SPR; Biacore T200, biotin capture, from kinetics at 0.6-1 uM protein; conditions: tags: GST fusion (pGEX6P-1), E. coli BL21(DE3), benzonase treated; label: 5' BiotinTEG
T2 sequence: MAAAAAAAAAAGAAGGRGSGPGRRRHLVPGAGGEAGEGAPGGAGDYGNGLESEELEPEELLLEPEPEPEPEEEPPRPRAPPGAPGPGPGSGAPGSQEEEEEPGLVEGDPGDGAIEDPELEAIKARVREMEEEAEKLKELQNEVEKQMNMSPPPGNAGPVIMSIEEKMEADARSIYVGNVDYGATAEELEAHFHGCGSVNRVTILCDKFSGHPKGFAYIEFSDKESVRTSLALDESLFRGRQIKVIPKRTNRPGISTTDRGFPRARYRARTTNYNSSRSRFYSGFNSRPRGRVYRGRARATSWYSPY
Procedure: (§1) SPR experiments were conducted on a Biacore T200 using the Biotin Capture Kit Series S following the manufacturer's instructions (GE). Biotin capture reagent was applied to the sensor chip at a flow rate of 2 μl/minute for 300 seconds. 1 nM biotinylated RNA (BiotinTEG-[…]; SEQ ID NO: 25) was captured at a flow rate of 10 μl/minute for 180 seconds. Samples were flowed across the sensor chip at 50 μl/minute for 120 seconds and the chip was regenerated for 120 seconds at a flow rate of 10 μl/minute.

[3] = target: T3, MSUT2 (ZC3H14) CCCH zinc finger domain (Homo sapiens, UniProt Q6PJT7 Q6PJT7:595-719); test: as above; conditions: tags: GST fusion (pGEX6P-1), E. coli BL21(DE3), benzonase treated; label: 5' BiotinTEG
T3 chain: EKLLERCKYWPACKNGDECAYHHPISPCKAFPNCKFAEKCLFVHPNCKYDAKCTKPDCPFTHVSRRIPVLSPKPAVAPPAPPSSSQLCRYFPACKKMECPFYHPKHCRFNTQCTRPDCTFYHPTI
Procedure: as §1

[4] = target: T1, GST-MSUT2; test: FP; dose-dependent polarization increase; conditions: tags: GST fusion; label: fluorescein (FAM)

AAAAAAAAAAAAAAAAAAAA (ssRNA) [biotin-poly(A)20]
binding result [1]: binds

AAAAAAAAAAAAAAA (ssRNA) [biotin-poly(A)15]
Kd [2]: 237 nM
Kd [3]: 60 nM

AAAAAAAAAAAAAAA (ssRNA) [FAM-PolyA15]
binding result [4]: binds
